Patent publication US20230235080A1, “TROPHOBLAST CELL-SURFACE ANTIGEN-2 (TROP-2) ANTIBODIES” (Bionecure Therapeutics, Inc., priority 2020, published 2023)
Residue numbers refer to the chain shown, from its start.

T1: human EPCAM-His (human, UniProt P16422 24-265)
T1 construct: also called hEPCAM
T1 sequence (looked up): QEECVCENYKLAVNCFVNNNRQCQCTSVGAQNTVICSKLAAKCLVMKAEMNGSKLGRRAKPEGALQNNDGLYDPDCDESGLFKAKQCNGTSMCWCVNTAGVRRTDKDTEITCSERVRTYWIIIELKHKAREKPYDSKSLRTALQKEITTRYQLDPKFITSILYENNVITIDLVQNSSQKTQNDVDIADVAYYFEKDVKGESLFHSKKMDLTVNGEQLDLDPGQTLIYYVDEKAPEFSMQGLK

T2: mouse Trop-2-His (mouse, UniProt Q8BGV3 25-270)
T2 sequence (looked up): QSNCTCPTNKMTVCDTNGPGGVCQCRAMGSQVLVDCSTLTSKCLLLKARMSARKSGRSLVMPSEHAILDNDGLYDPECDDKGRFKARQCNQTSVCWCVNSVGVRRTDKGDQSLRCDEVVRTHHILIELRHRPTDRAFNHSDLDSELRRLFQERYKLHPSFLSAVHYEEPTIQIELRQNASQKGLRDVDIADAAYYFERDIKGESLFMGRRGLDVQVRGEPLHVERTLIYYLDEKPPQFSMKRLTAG

T3: human Trop-2 on Trop-2 positive cancer cells (human, UniProt P09758 27-323)
T3 sequence (looked up): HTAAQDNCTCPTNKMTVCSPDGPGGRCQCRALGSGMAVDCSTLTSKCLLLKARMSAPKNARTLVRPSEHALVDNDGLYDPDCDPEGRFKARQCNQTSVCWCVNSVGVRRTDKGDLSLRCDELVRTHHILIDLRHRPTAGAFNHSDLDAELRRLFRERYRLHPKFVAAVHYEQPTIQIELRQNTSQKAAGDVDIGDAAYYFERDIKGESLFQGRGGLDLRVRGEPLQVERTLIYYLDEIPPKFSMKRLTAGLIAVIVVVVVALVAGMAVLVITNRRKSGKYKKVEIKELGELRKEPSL

T4: human Trop-2-ECD-6His fusion protein (human, UniProt P09758 27-274)
T4 construct: Expressed in a human 293 cell line; also called huTrop-2; human Trop-2 antigen
T4 sequence: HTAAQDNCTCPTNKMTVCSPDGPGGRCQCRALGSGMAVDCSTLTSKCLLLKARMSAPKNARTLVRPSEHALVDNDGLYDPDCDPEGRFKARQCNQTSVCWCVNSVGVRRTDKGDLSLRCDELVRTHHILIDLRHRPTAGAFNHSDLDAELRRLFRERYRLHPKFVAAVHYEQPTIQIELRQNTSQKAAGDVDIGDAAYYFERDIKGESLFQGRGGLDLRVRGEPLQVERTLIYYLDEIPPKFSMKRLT

B1: humanized IgG #118-2-5 HuA/LuX (antibody, V domains shown)
VH: QVQLQESGPGLVKPSETLSLTCTVSGFSLTSYGVNWIRQPPGKGLEWIGVMWAGGSTNYNSALMSRVTISVDTSKNQFSLKLSSVTAADTAVYYCARDENWDGAWFAYWGQGTLVTVSS
VL: DIVMTQSPDSLAVSLGERATINCKSSQSLLNSGTRKNYLAWYQQKPGQPPKLLIYWASSRESGVPDRFSGSGSGTDFTLTISSLQAEDVAVYYCKQSYNLFTFGGGTKVEIK
notes: Full-length IgG expressed in HEK293-6E cells; also called 1 (HuA/LuX); IgG HuA/LuX
B2: humanized IgG #118-2-5 HuD/LuY (antibody, V domains shown)
VH: B1 VH with Q5K, K13A, L20I, I48L, V67L, V71K, F78V, T86Q, V92M
VL: B1 VL with D9S, I21M, N22S, Y55S, L84V, V89L
notes: Full-length IgG expressed in HEK293-6E cells; also called 8 (HuD/LuY)
B3: humanized IgG #118-2-5 HuC/LuX (antibody, V domains shown)
VH: QVQLQESGPGLVKPSETLSLTCTVSGFSLTSYGVNWIRQPPGKGLEWIGVMWAGGSTNYNSALMSRLSISKDNSKSQVFLKMNSLQTDDTGMYYCARDENWDGAWFAYWGQGTLVTVSS
VL: B1 VL
notes: Full-length IgG expressed in HEK293-6E cells; also called 3 (HuC/LuX)
B4: humanized IgG #118-2-5 HuD/LuX (antibody, V domains shown)
VH: B1 VH with Q5K, K13A, L20I, I48L, V67L, V71K, F78V, T86Q, V92M
VL: B1 VL
notes: Full-length IgG expressed in HEK293-6E cells; also called 4 (HuD/LuX)
B5: humanized IgG #118-2-5 HuB/LuX (antibody, V domains shown)
VH: B1 VH with Q5K, E6Q, K13A, E16Q, T17S, L20I
VL: B1 VL
notes: Full-length IgG expressed in HEK293-6E cells; also called 2 (HuB/LuX)
B6: humanized IgG #118-2-5 HuC/LuY (antibody, V domains shown)
VH: B3 VH
VL: B1 VL with D9S, I21M, N22S, Y55S, L84V, V89L
notes: Full-length IgG expressed in HEK293-6E cells; also called 7 (HuC/LuY)
B7: humanized IgG #118-2-5 HuB/LuY (antibody, V domains shown)
VH: B1 VH with Q5K, E6Q, K13A, E16Q, T17S, L20I
VL: B1 VL with D9S, I21M, N22S, Y55S, L84V, V89L
notes: Full-length IgG expressed in HEK293-6E cells; also called 6 (HuB/LuY)
B8: humanized IgG #118-2-5 HuA/LuY (antibody, V domains shown)
VH: B1 VH
VL: B1 VL with D9S, I21M, N22S, Y55S, L84V, V89L
notes: Full-length IgG expressed in HEK293-6E cells
B9: #118-2-5 mouse H4-2/L3-3 (antibody, V domains shown)
VH: QVQLKQSGPGLVAPSQSLSITCTVSGFSLTSYGVNWIRQPPGKGLEWLGVMWAGGSTNYNSALMSRLSISKDNSKSQVFLKMNSLQTDDTGMYYCARDENWDGAWFAYWGQGTLVTVS
VL: DIQMTQSPSSLAVSAGEKVTMSCKSSQSLLNSGTRKNYLAWYQQKPGQSPKLLISWASSRESGVPDRFTGSGSGTDFTLTISSVQAEDLAVYYCKQSYNLFTFGGGTKLELK
notes: The label H4-2/L3-3 is not explained
B10: Hu(A1)/LuX: humanized #118-2-5, heavy chain Hu(A1) (SEQ ID NO: 29) with light chain LuX (SEQ ID NO: 27) (antibody, V domains shown)
VH: B1 VH
VL: B1 VL
B11: humanized IgG #125-1-5 Hu3/Lu5 (antibody, V domains shown)
VH: QVQLVQSGAEVKKPGASVKVSCKASGYTFTTYVIHWVRQAPGQRLEWMGYINPNNDGTKYNEKFKGKATLTSDKSSTTAYMEVRGLTSEDSAVYYCARPHFETHAMDYWGQGTLVTVSS
VL: DIQMTQSPSSLSASVGDRVTITCKASEDIFNRLAWYQQKPGKAPKLLLYGATSLETGVPSRFSGSGSGTDYTLTISSLQPEDFATYYCQQYWNTWTFGQGTKVEIKR
notes: also called IgG Hu3/Lu5
B12: humanized #125-1-5 Hu1/Lu6 (antibody, V domains shown)
VH: QVQLVQSGAEVKKPGASVKVSCKASGYTFTTYVIHWVRQAPGQRLEWMGYINPNNDGTKYNEKFKGRVTITRDTSASTAYMELSSLRSEDTAVYYCARPHFETHAMDYWGQGTLVTVSS
VL: DIQMTQSPSSLSASVGDRVTITCKASEDIFNRLAWYQQKPGKAPKLLISGATSLETGVPSRFSGSGSGKDYTLTISSLQPEDFATYYCQQYWNTWTFGQGTKVEIK
notes: Humanized antibody
B13: humanized #125-1-5 Hu4/Lu6 (antibody, V domains shown)
VH: B12 VH with V20M, M48I, V68A, I70L, R72S, T74K
VL: B12 VL
notes: Humanized antibody
B14: humanized #125-1-5 Hu4/Lu5 (antibody, V domains shown)
VH: B12 VH with V20M, M48I, V68A, I70L, R72S, T74K
VL: B12 VL with I48L, S49Y, K69T
notes: Humanized antibody
B15: humanized #125-1-5 Hu3/Lu6 (antibody, V domains shown)
VH: B11 VH
VL: B12 VL
notes: Humanized antibody
B16: humanized #125-1-5 Hu2/Lu6 (antibody, V domains shown)
VH: B12 VH with R38K, A40K, R44G, M48I
VL: B12 VL
notes: Humanized antibody
B17: humanized #125-1-5 Hu2/Lu5 (antibody, V domains shown)
VH: B12 VH with R38K, A40K, R44G, M48I
VL: B12 VL with I48L, S49Y, K69T
notes: Humanized antibody

Each molecule was assayed against T1, human EPCAM-His (assay: ELISA on coated antigen, one antibody dilution (concentration not given), detected by GAH-HRP; y axis without a label (OD450 by the text)). Details: not given.
B1: no binding.
B2: no binding.
B3: no binding.
B4: no binding.
B5: no binding.
B6: no binding.
B7: no binding.
B8: no binding.
B9: no binding.

The molecules below were run against T2, mouse Trop-2-His in the same assay as above. Details: not given.
B1: no binding.
B2: no binding.
B3: no binding.
B4: no binding.
B5: no binding.
B6: no binding.
B7: no binding.
B8: no binding.
B9: no binding.

The molecules below were run against T3, human Trop-2 on Trop-2 positive cancer … (assay: cell-based or functional assay). Details: not given.
With B1 the “Internalization rate (flow cytometry, MDA-MB-468 cells)” value was 70.9%.
In the case of B2, the “Internalization rate (flow cytometry, MDA-MB-468 cells)” value is reported as 13.2%.
In the case of B3, the “Internalization rate (flow cytometry, MDA-MB-468 cells)” value is reported as 0.9%.
With B4 the “Internalization rate (flow cytometry, MDA-MB-468 cells)” value was -7.8%.
With B5 the “Internalization rate (flow cytometry, MDA-MB-468 cells)” value was 75%.
In the case of B6, the “Internalization rate (flow cytometry, MDA-MB-468 cells)” value is reported as 3%.
In the case of B7, the “Internalization rate (flow cytometry, MDA-MB-468 cells)” value is reported as -8.5%.
With B8 the “Internalization rate (flow cytometry, MDA-MB-468 cells)” value was -14.7%.
With B9 the “Internalization rate (flow cytometry, MDA-MB-468 cells)” value was 28.4%.

What follows are molecules tested on Trop-2 positive breast cancer cell line MDA-MB-468 (assay: Internalization assay by flow cytometry (Example 2 protocol)). Details: Table 9; second round of humanization of #118-2-5.
Format: cell-based, human
Procedure: The chimeric IgG1 #118-2-5 and #125-1-5 were further evaluated by internalization assay using Trop-2 positive breast cancer cell line MDA-MB-468. MDA-MB-468 cells were seeded at 1×10^5 cell/well. Next, the chimeric or benchmark IgGs were added to cells in FACS buffer and incubated for 2 hours at 4° C. After incubation, the cells were washed to remove unbound antibody. The cells were then incubated at 37° C. After 2 hours, the cells were dissociated and stained with fluorescent-conjugated […] secondary antibodies for 30 minutes on ice in dark before being analyzed using Beckman flow cytometry system. The fluorescent intensity and cell binding percentage at each time point were analyzed by Beckman flow cytometric software. The amount of chimeric IgGs internalized into cells was determined using the following formula: % internalization rate = 100 × (MFI4°C - MFI37°C) / MFI4°C.
Work on B10 yielded an Internalization rate of 56.01%.

What follows are molecules tested against T4, human Trop-2-ECD-6His fusion protein (assay: antigen binding ELISA on immobilized human Trop-2-ECD-6His). Details: not given.
With B1 the EC50 was 0.142 nM.
Molecule B2 has an EC50 of 0.005 nM.
B3 gave an EC50 of 0.034 nM.
In the case of B4, the EC50 is reported as 0.011 nM.
Molecule B5 has an EC50 of 0.164 nM.
B6 was tested, and the EC50 was 0.014 nM.
B7 gave an EC50 of 0.004 nM.
B8 was tested, and the EC50 was 0.016 nM.
B9 showed an EC50 of 0.024 nM.

Target: T4, human Trop-2-ECD-6His fusion protein
Experiment: as above
Details: not given
Remark: another data set of the same source
In the case of B1, the EC50 is reported as 0.39 nM.
With B2 the EC50 was 0.06 nM.

Target: T3, human Trop-2 on Trop-2 positive cancer …
Experiment: cell-based or functional assay
Details: not given
Remark: another data set of the same source
For B11, the “Internalization rate (flow cytometry, MDA-MB-468 cells)” value was 14%.
In the case of B12, the “Internalization rate (flow cytometry, MDA-MB-468 cells)” value is reported as 14%.
For B13, the “Internalization rate (flow cytometry, MDA-MB-468 cells)” value was 10.3%.
In the case of B14, the “Internalization rate (flow cytometry, MDA-MB-468 cells)” value is reported as 24.9%.
B15 was tested, and the “Internalization rate (flow cytometry, MDA-MB-468 cells)” value was 7.5%.
In the case of B16, the “Internalization rate (flow cytometry, MDA-MB-468 cells)” value is reported as 14.1%.
For B17, the “Internalization rate (flow cytometry, MDA-MB-468 cells)” value was 47.3%.

Target: T3, human Trop-2 on Trop-2 positive cancer …
Experiment: cell-based or functional assay
Details: not given
Remark: another data set of the same source
With B1 the “Internalization rate (flow cytometry, MDA-MB-468 cells)” value was 96.8%.
B2 was tested, and the “Internalization rate (flow cytometry, MDA-MB-468 cells)” value was 57.3%.

Target: T4, human Trop-2-ECD-6His fusion protein
Experiment: antigen binding ELISA on immobilized human Trop-2-ECD-6His
Details: not given
Remark: another data set of the same source
In the case of B11, the EC50 is reported as 0.012 nM.
B12 showed an EC50 of 0.003 nM.
B13 showed an EC50 of 0.022 nM.
In the case of B14, the EC50 is reported as 0.019 nM.
With B15 the EC50 was 0.045 nM.
In the case of B16, the EC50 is reported as 0.018 nM.
Molecule B17 has an EC50 of 0.007 nM.
